Results reported in patent publication US20220195023A1.
Where “and” joins values, the source holds several entries; their conditions need not be identical. Equal values may be shown once.

How the values were obtained:
[1] = target: … (Plasmodium falciparum); test: BLI, target on sensor
[2] = target: (NVDP)3(NANP)2 (Plasmodium falciparum); test: BLI, target on sensor
[3] = target: NANPNVDP (Plasmodium falciparum); test: BLI, target on sensor
[4] = target: (NANP)6 (Plasmodium falciparum); test: BLI, target on sensor
[5] = target: (NPNA)3 (Plasmodium falciparum); test: BLI, target on sensor
[6] = target: … (Plasmodium falciparum); test: SPR, antibody on chip
[7] = target: (NVDP)3(NANP)2 (Plasmodium falciparum); test: SPR, antibody on chip
[8] = target: (NANP)6 (Plasmodium falciparum); test: SPR, antibody on chip
[9] = target: (NPNA)3 (Plasmodium falciparum); test: SPR, antibody on chip

Row | Binder | Kd [1] | Kd [2] | Kd [3] | Kd [4] | Kd [5] | Kd [6] | Kd [7] | Kd [8] | Kd [9]
1 | AB-000317 (antibody, V domains shown) VH: QMQLVESGGGVVQPGRSLRLSCTASGFTFSTYAMHWVRQSPGQGLQWVAVISYHSTNKYYEDSVRGRFTISRDNSKNTLYLQMNSLRAEDTAVYYCARDGYSSSFFDFWGQGTLVTVSS VL: DIQMTQSPSTLSASVGDRVAITCRASQSISRWLAWYQQQPGKAPKLLMSGASVLESGVPSRFSGSGSGTEFTLTISSLQPDDFATYYCQHYNSYFVTFGQGTKVEIK | 2.76 nM and 2.51 nM | 4.27 nM and 3.73 nM | 9.2 nM and 12.7 nM | 0.714 nM and 1.38 nM | 0.18 nM and 0.8 nM | 12900 nM and 15800 nM | 2590 nM and 2910 nM | 1.75 nM and 0.817 nM | 4.91 nM and 11.2 nM
2 | AB-007067 (antibody, V domains shown) VH: QMQLVESGGGVVQPGRSLRLSCTASGFTFSTYAMHWVRQSPGQGLQWVAVISYHSTNKYYEDSVRGRFTISRDNSKNTLYLQMNSLRAEDTAVYYCARDGYSSSFFDFWGQGTLVTVSS VL: DIQMTQSPSTLSASVGDRVAITCRASQSISRWLAWYQQQPGKAPKLLMSSASVLESGVPSRFSGSGSGTEFTLTISSLQPDDFATYYCQHYNSYFVTFGQGTKVEIK | 36.1 nM | 34 nM |  | 0.647 nM | 2.02 nM |  |  | 0.244 nM | 207 nM
3 | AB-007056 (antibody, V domains shown) VH: QMQLVESGGGVVQPGRSLRLSCTASGFTFSTYAMHWVRQSPGQGLQWVAVISYHSTNKYYEDSVRGRFTISRDNSKNTLYLQMNSLRAEDTAVYYCARDGYQSSFFDFWGQGTLVTVSS VL: DIQMTQSPSTLSASVGDRVAITCRASQSISRWLAWYQQQPGKAPKLLMSGASVLESGVPSRFSGSGSGTEFTLTISSLQPDDFATYYCQHYNSYFVTFGQGTKVEIK | 23.6 nM | 24.9 nM | 29.6 nM | 0.88 nM | 0.263 nM |  |  | 0.104 nM | 62 nM
4 | AB-007066 (antibody, V domains shown) VH: QMQLVESGGGVVQPGRSLRLSCTASGFTFSTYAMHWVRQSPGQGLQWVAVISYHSTNKYYEDSVRGRFTISRDNSKNTLYLQMNSLRAEDTAVYYCARDGYSSSFFDFWGQGTLVTVSS VL: DIQMTQSPSTLSASVGDRVAITCRASQSISRWLAWYQQQPGKAPKLLMSQASVLESGVPSRFSGSGSGTEFTLTISSLQPDDFATYYCQHYNSYFVTFGQGTKVEIK | 26.6 nM | 22.4 nM |  | 0.315 nM | 3.58 nM |  |  | 0.979 nM | 357 nM
5 | AB-007069 (antibody, V domains shown) VH: QMQLVESGGGVVQPGRSLRLSCTASGFTFSTYAMHWVRQSPGQGLQWVAVISYHSTNKYYEDSVRGRFTISRDNSKNTLYLQMNSLRAEDTAVYYCARDGYSSSFFDFWGQGTLVTVSS VL: DIQMTQSPSTLSASVGDRVAITCRASQSISRWLAWYQQQPGKAPKLLMSVASVLESGVPSRFSGSGSGTEFTLTISSLQPDDFATYYCQHYNSYFVTFGQGTKVEIK | 27.5 nM | 28.7 nM | 26.6 nM | 1.33 nM | 1.43 nM |  |  | 1.85 nM | 204 nM
6 | AB-007060 (antibody, V domains shown) VH: QMQLVESGGGVVQPGRSLRLSCTASGFTFSTYAMHWVRQSPGQGLQWVAVISYHSTNKYYEDSVRGRFTISRDNSKNTLYLQMNSLRAEDTAVYYCARDGYSSSYFDFWGQGTLVTVSS VL: DIQMTQSPSTLSASVGDRVAITCRASQSISRWLAWYQQQPGKAPKLLMSGASVLESGVPSRFSGSGSGTEFTLTISSLQPDDFATYYCQHYNSYFVTFGQGTKVEIK | 43.2 nM | 45.2 nM |  | 0.898 nM | 1.14 nM |  |  | 1.21 nM | 212 nM
7 | AB-007053 (antibody, V domains shown) VH: QMQLVESGGGVVQPGRSLRLSCTASGFTFSTYAMHWVRQSPGQGLQWVAVISYHSTQKYYEDSVRGRFTISRDNSKNTLYLQMNSLRAEDTAVYYCARDGYSSSFFDFWGQGTLVTVSS VL: DIQMTQSPSTLSASVGDRVAITCRASQSISRWLAWYQQQPGKAPKLLMSGASVLESGVPSRFSGSGSGTEFTLTISSLQPDDFATYYCQHYNSYFVTFGQGTKVEIK | 23.5 nM | 25.8 nM | 24.7 nM | 1.37 nM | 0.552 nM |  |  | 1.42 nM | 112 nM
8 | AB-007058 (antibody, V domains shown) VH: QMQLVESGGGVVQPGRSLRLSCTASGFTFSTYAMHWVRQSPGQGLQWVAVISYHSTNKYYEDSVRGRFTISRDNSKNTLYLQMNSLRAEDTAVYYCARDGYSTSFFDFWGQGTLVTVSS VL: DIQMTQSPSTLSASVGDRVAITCRASQSISRWLAWYQQQPGKAPKLLMSGASVLESGVPSRFSGSGSGTEFTLTISSLQPDDFATYYCQHYNSYFVTFGQGTKVEIK | 46.3 nM | 42.2 nM |  | 1.14 nM | 1.3 nM |  |  | 0.137 nM | 339 nM
9 | AB-007050 (antibody, V domains shown) VH: QMQLVESGGGVVQPGRSLRLSCTASGFTFSTYAMHWVRQSPGQGLQWVAVISQHSTNKYYEDSVRGRFTISRDNSKNTLYLQMNSLRAEDTAVYYCARDGYSSSFFDFWGQGTLVTVSS VL: DIQMTQSPSTLSASVGDRVAITCRASQSISRWLAWYQQQPGKAPKLLMSGASVLESGVPSRFSGSGSGTEFTLTISSLQPDDFATYYCQHYNSYFVTFGQGTKVEIK | 37.4 nM | 33.4 nM |  | 0.856 nM | 1.05 nM |  |  | 0.54 nM | 271 nM
10 | AB-007048 (antibody, V domains shown) VH: QMQLVESGGGVVQPGRSLRLSCTASGFTFSTYSMHWVRQSPGQGLQWVAVISYHSTNKYYEDSVRGRFTISRDNSKNTLYLQMNSLRAEDTAVYYCARDGYSSSFFDFWGQGTLVTVSS VL: DIQMTQSPSTLSASVGDRVAITCRASQSISRWLAWYQQQPGKAPKLLMSGASVLESGVPSRFSGSGSGTEFTLTISSLQPDDFATYYCQHYNSYFVTFGQGTKVEIK | 28.6 nM | 34.6 nM |  | 1.46 nM | 3.33 nM |  |  | 1 nM | 1550 nM
11 | AB-007045 (antibody, V domains shown) VH: QMQLVESGGGVVQPGRSLRLSCTASGFTFSTYAMHWVRQSPGQGLQWVAVISYHSTNKYYEDSVRGRFTISRDNSKNTLYLQMNSLRAEDTAVYYCARDAYSSSFFDFWGQGTLVTVSS VL: DIQMTQSPSTLSASVGDRVAITCRASQSISRWLAWYQQQPGKAPKLLMSGASVLESGVPSRFSGSGSGTEFTLTISSLQPDDFATYYCQHYNSYFVTFGQGTKVEIK | 43.6 nM | 43.9 nM | 28.2 nM | 0.703 nM | 0.734 nM |  |  | 2.35 nM | 246 nM
12 | AB-007055 (antibody, V domains shown) VH: QMQLVESGGGVVQPGRSLRLSCTASGFTFSTYAMHWVRQSPGQGLQWVAVISYHSTNKYYEDSVRGRFTISRDNSKNTLYLQMNSLRAEDTAVYYCARDGYTSSFFDFWGQGTLVTVSS VL: DIQMTQSPSTLSASVGDRVAITCRASQSISRWLAWYQQQPGKAPKLLMSGASVLESGVPSRFSGSGSGTEFTLTISSLQPDDFATYYCQHYNSYFVTFGQGTKVEIK |  |  |  | 1.61 nM | 3.62 nM |  |  | 0.403 nM | 1470 nM
13 | AB-007064 (antibody, V domains shown) VH: QMQLVESGGGVVQPGRSLRLSCTASGFTFSTYAMHWVRQSPGQGLQWVAVISYHSTNKYYEDSVRGRFTISRDNSKNTLYLQMNSLRAEDTAVYYCARDGYSSSFFDFWGQGTLVTVSS VL: DIQMTQSPSTLSASVGDRVAITCRASQSISRWLAWYQQQPGKAPKLLMTGASVLESGVPSRFSGSGSGTEFTLTISSLQPDDFATYYCQHYNSYFVTFGQGTKVEIK | 30.9 nM | 33.7 nM | 36.7 nM | 0.434 nM | 0.453 nM |  |  | 0.192 nM | 152 nM
14 | AB-007059 (antibody, V domains shown) VH: QMQLVESGGGVVQPGRSLRLSCTASGFTFSTYAMHWVRQSPGQGLQWVAVISYHSTNKYYEDSVRGRFTISRDNSKNTLYLQMNSLRAEDTAVYYCARDGYSSTFFDFWGQGTLVTVSS VL: DIQMTQSPSTLSASVGDRVAITCRASQSISRWLAWYQQQPGKAPKLLMSGASVLESGVPSRFSGSGSGTEFTLTISSLQPDDFATYYCQHYNSYFVTFGQGTKVEIK | 17.4 nM | 19.8 nM | 25.8 nM | 1.41 nM | 0.478 nM |  | 17500 nM | 0.266 nM | 174 nM
15 | AB-007068 (antibody, V domains shown) VH: QMQLVESGGGVVQPGRSLRLSCTASGFTFSTYAMHWVRQSPGQGLQWVAVISYHSTNKYYEDSVRGRFTISRDNSKNTLYLQMNSLRAEDTAVYYCARDGYSSSFFDFWGQGTLVTVSS VL: DIQMTQSPSTLSASVGDRVAITCRASQSISRWLAWYQQQPGKAPKLLMSLASVLESGVPSRFSGSGSGTEFTLTISSLQPDDFATYYCQHYNSYFVTFGQGTKVEIK | 18.3 nM | 17.1 nM | 21.8 nM | 1.59 nM | 0.703 nM |  | 32400 nM | 1.56 nM | 111 nM
16 | AB-007065 (antibody, V domains shown) VH: QMQLVESGGGVVQPGRSLRLSCTASGFTFSTYAMHWVRQSPGQGLQWVAVISYHSTNKYYEDSVRGRFTISRDNSKNTLYLQMNSLRAEDTAVYYCARDGYSSSFFDFWGQGTLVTVSS VL: DIQMTQSPSTLSASVGDRVAITCRASQSISRWLAWYQQQPGKAPKLLMSKASVLESGVPSRFSGSGSGTEFTLTISSLQPDDFATYYCQHYNSYFVTFGQGTKVEIK | 9.73 nM | 9.71 nM | 15.8 nM | 0.729 nM | 2.23 nM |  | 12600 nM | 0.238 nM | 125 nM
